Experimental findings from PMC4398509, “A new regulatory mechanism for bacterial lipoic acid synthesis” are described below.

Data set [1] has as its target CRP_ec (cAMP receptor protein) (Escherichia coli, UniProt P0ACJ8 1-210). As to the kind of experiment: EMSA; cAMP (20 pmol); EMSA: 0.2 pmol DIG probe, CRP (2 pmol in Fig. 6), 20 pmol cAMP, Roche binding buffer (composition and pH not given), 20 uL (15 uL in Fig. S2), room temperature. Particulars: protein: recombinant; tags: His6 (pET28 construct, nickel purified); chain copies: 2; label: DIG-ddUTP 3' end (terminal transferase); blunt. A general note: In EMSA bound probe runs differently from free probe, usually more slowly.

Data set [2] addresses CRP_she (cAMP receptor protein) (UniProt Q8EJ49 1-211). The data set is described as above. Particulars: protein: recombinant; tags: N-terminal His6 (pET28a); chain copies: 2; label: DIG-ddUTP 3' end (terminal transferase); blunt.

B1: ybeD_ec (dsDNA)
DNA 1: AAACACTTGAAAGTGTAATTTCCGTCCCCATATACTAAGCAT
DNA 2: ATGCTTAGTATATGGGGACGGAAATTACACTTTCAAGTGTTT
Regarding B1, the binding result in data set [1] was “no binding”.

B2: ybeD_kp (dsDNA)
DNA 1: GAACACTTGAAAGTGTGATTTCCATCCCCATATACTATTCAT
DNA 2: ATGAATAGTATATGGGGATGGAAATCACACTTTCAAGTGTTC
In the case of B2, the binding result in data set [1] is recorded as “binds”.

B3: ybeD_es (dsDNA)
DNA 1: GAACACTTGAAAGTGTGATTTCCATCCCCATATACTAGGTAT
DNA 2: ATACCTAGTATATGGGGATGGAAATCACACTTTCAAGTGTTC
On to B3, for which, in data set [1], the binding result was “binds”.

B4: ybeD_st1 (dsDNA)
DNA 1: GAACGCTTGAAAGTGTGATTTTCGTCCCCATATACTATGCAT
DNA 2: ATGCATAGTATATGGGGACGAAAATCACACTTTCAAGCGTTC
Regarding B4, the binding result in data set [1] is on record as “binds”.

B5: fadD_ec (dsDNA)
DNA 1: GTAAAGATAAAAATAAATAGTGACGCGCTTCGCAACCTTTTCGTTGGG
DNA 2: CCCAACGAAAAGGTTGCGAAGCGCGTCACTATTTATTTTTATCTTTAC
On to B5, for which the binding result in data set [1] and in data set [2] was “binds” throughout.

B6: lipA_ec (dsDNA)
DNA 1: ACGGAGTAATAGATGTTATCCGTAATGCATTTTGAAAAAGTA
DNA 2: TACTTTTTCAAAATGCATTACGGATAACATCTATTACTCCGT
With B6, the binding result in data set [1] was “no binding”.

B7: ybeD_yp (dsDNA)
DNA 1: ATTGGCCCCATATTGTGATTAATCTTATATTGCAAATAAGCT
DNA 2: AGCTTATTTGCAATATAAGATTAATCACAATATGGGGCCAAT
Take B7: in data set [1], the binding result is recorded as “no binding”.

B8: ybeD_st2 (dsDNA)
DNA 1: CTGTGGCGGGAGTTGTTATTTTTTTTACGTAATGCCGGAGCT
DNA 2: AGCTCCGGCATTACGTAAAAAAAATAACAACTCCCGCCACAG
On to B8, for which the binding result in data set [1] was “no binding”.

B9: lipBA_she (dsDNA)
DNA 1: CAAGGTCATAAAGTGTGATCTATCTTACATTTATGGCCAAGAG
DNA 2: CTCTTGGCCATAAATGTAAGATAGATCACACTTTATGACCTTG
As to B9, the binding result in data set [1] and in data set [2] was “binds” each time.
